Laboratory results published in patent US10519419B2, “Method for producing culture medium composition” (NISSAN CHEMICAL CORPORATION, priority 2014, dated 2019).

Tests used:
[1] = State and viscosity measurement of medium composition (E type viscometer); format: physicochemical; settings: DMEM/F-12; for viscosity: 37°C, 100 rpm
Procedure: The viscosity of the liquid containing the structure can be measured, for example, by the method described in the below-mentioned Examples. Specifically, it can be measured under 37° C. conditions and using an E-type viscosity meter (manufactured by Toki Sangyo Co., Ltd., TV-22 type viscosity meter, model: TVE-22L, corn roter: standard roter 1° 34′×R24, rotation number 100 rpm).
This aqueous solution was allowed to cool to room temperature with stirring, and sterilized at 121° C. for 20 min in an autoclave. […] The viscosity of the medium compositions was measured using an E type viscometer (manufactured by Toki Sangyo Co., Ltd., Viscometer TVE-22L, standard roter 1° 34′×R24) under 37° C. condition at 100 rpm for 5 min.
The medium compositions prepared above were subjected to a suspension test of HeLa cell spheres and a viscosity measurement, in the same manner as with the deacylated gellan gum-containing medium. The viscosity of 1.0% (w/v) methylcellulose was measured at 50 rpm due to the measurement range of the apparatus.

HeLa cell spheres = assay: Cell suspension test with HeLa cell spheres; format: cell-based, human; settings: DMEM/F-12, 37°C, 1 hr
Procedure: Human cervical cancer cell line HeLa (manufactured by DS PHARMA BIOMEDICAL CO., LTD.) was suspended in EMEM medium containing 10% (v/v) fetal bovine serum (manufactured by WAKO) at 250000 cells/mL, the suspension (10 mL) was plated on EZ SPHERE (manufactured by ASAHI GLASS CO., LTD.), and cultured in a CO2 incubator (5% CO2) for 3 days. The obtained suspension (10 mL) of spheres (diameter 100-200 μm) was centrifuged (200 G, 5 min) to allow for sphere sedimentation, and the supernatant was removed to give a sphere suspension (1.0 mL). Successively, the deacylated gellan gum-containing medium prepared above was placed in a 1.5 mL Eppendorf tube by 1.0 mL, and a HeLa cell sphere suspension (10 μL) was further added. The cell aggregate was dispersed by tapping, incubated at 37° C., and the dispersion state of the cells 1 hr later was visually observed.
In the same manner as in Reference Experimental Example 2, spheres of HeLa cells were formed, and several tens of the spheres were added to each medium (1 mL) prepared above, the mixture was stood still at 37° C. for 1 hr, and the suspended state of the sphere cells was visually observed. […] Furthermore, it was confirmed that addition of an equal amount of the medium to the cell suspension and centrifugation (300 to 400 G, 5 min) thereof result in sedimentation and recovery of the spheres of HeLa cells.
In the same manner as in Reference Experimental Example 2, spheres of HeLa cells were produced, and several tens of spheres were added to each medium (1 mL) prepared above, the mixture was stood still at 37° C. for 1 hr, and the suspended state of the sphere cells was visually observed. […] Furthermore, it was confirmed that centrifugation (200 G, 5 min) of the cell suspension containing 0.1% (w/v) diutan gum result in sedimentation and recovery of the spheres of HeLa cells.

Question: What does the source list for collagen?
Answer: state ([1]; collagen 0.01% (w/v)): liquid; viscosity ([1]; collagen 0.01% (w/v)): 1.18 mPa · s; state ([1]; collagen 0.05% (w/v)): liquid/solid; viscosity ([1]; collagen 0.05% (w/v)): unmeasurable; state ([1]; collagen 0.1% (w/v)): solid (gel); viscosity ([1]; collagen 0.1% (w/v)): unmeasurable; state ([1]; collagen 0.2% (w/v)): solid (gel); viscosity ([1]; collagen 0.2% (w/v)): unmeasurable; HeLa cell suspension/sedimentation (HeLa cell spheres; collagen 0.01% (w/v)): sedimentation; HeLa cell suspension/sedimentation (HeLa cell spheres; collagen 0.05% (w/v)): suspension; HeLa cell suspension/sedimentation (HeLa cell spheres; collagen 0.1% (w/v)): suspension; HeLa cell suspension/sedimentation (HeLa cell spheres; collagen 0.2% (w/v)): suspension
